Patent US7037666B2, “Methods for identifying modulators of the interaction between lap (latency associated peptide) and intergrin αvβ3 and medical use thereof” (SmithKline Beecham Corporation, priority 2000, dated 2006)
Ends that are not written are not given here.

Key:
Assay type in all cases: cell-based
[1] = molecular target: T1, αvβ3 integrin (Homo sapiens, UniProt P05106+P06756); assay: Adhesion of K562-αvβ3 cells to GST-LAPβ1 (amino acids 242–252) coated wells; details: matrix titration or 0.5 μg coated, 2 mM MgCl2
T1 construct: expressed in transfected cells; host or cells: K562
Experimental: All proteins were coated onto Maxisorp 96-well plates (Nunclon) overnight at 4° C. Each protein was diluted in PBS at the concentrations indicated, and a total volume of 100 ul added per well. Plates were washed twice in PBS then blocked with 3% BSA/PBS for 1 hour at 37° C., and finally washed twice in PBS. Cells were pelleted and washed once in HBSS (Sigma) then spread in HBSS, 25 mM HEPES pH 7.5 at the desired cell concentration (K562-WT, K562-αvβ6, HL60 at 6×10^6 cells/ml, K562-αvβ5, K562-αvβ3 at 4×10^6 cells/ml, 100 ul per well), in the presence of either 2 mM MgCl2 or 0.5 mM MnCl2 as indicated in the figure legends. […] For antibody inhibition cells were pre-incubated with the antibody (10 μg/ml) on ice for 5 minutes. Cells were then allowed to attach for 35 minutes at 37° C., washed twice with PBS, once in ethanol, and fixed in ethanol for 20 minutes at room temperature. For quantitation cells were visualised by staining with 0.1% crystal violet (Sigma) for 10 minutes then lysed in 0.5% Triton X-100 (Sigma) and read optically at 570 nm in a Wallac Victor plate reader.

[2] = molecular target: T2, αvβ6 integrin (Homo sapiens, UniProt P06756+P18564); assay: Adhesion of K562-αvβ6 cells to LAP-β1 coated wells; details: coated at 10 μg/ml, 0.5 mM MnCl2
T2 construct: expressed in transfected cells; host or cells: K562
Experimental: (§1) Cells were allowed to attach to wells coated with LAP-β1 at 10 μg/ml. Cells were incubated for 35 minutes at 37° C. in HBSS supplemented with 25 mM HEPES pH 7.5, and either 0.5 mM MnCl2 (K562-WT, HL60, K562-αvβ6) or 2 mM MgCl2 (K562-αvβ3, K562-αvβ5). Each bar represents the mean±SD of duplicated points.
Cells were allowed to attach to wells coated with LAP-β1 at 10 μg/ml. Cells were incubated for 5 minutes on ice, then for 35 minutes at 37° C., in the presence of antibodies at 10 μg/ml as indicated. The buffer used was HBSS supplemented with 25 mM HEPES pH 7.5, and 2 mM MgCl2. Each bar represents the mean±SD of duplicated samples.
K562-WT (wild-type), K562-αvβ6, K562-αvβ5, K562-αvβ3, and HL60 cells were maintained in 1:1 RPMI 1640, Hepes modification (Gibco): Dulbecco's Minimum Essential Medium (DMEM), Hepes modification (Sigma) supplemented with L-glutamine (Gibco) and 10% fetal calf serum (FCS). In addition K562-αvβ3, K562-αvβ5, and K562-αvβ6 cells were supplemented with geneticin (G418, Gibco) at 1 mg/ml. […]
(§2) All proteins were coated onto Maxisorp 96-well plates (Nunclon) overnight at 4° C. […] For quantitation cells were visualised by staining with 0.1% crystal violet (Sigma) for 10 minutes then lysed in 0.5% Triton X-100 (Sigma) and read optically at 570 nm in a Wallac Victor plate reader.

[3] = tested on: HL60 cells; assay: Adhesion of HL60 cells to LAP-β1 coated wells; details: coated at 10 μg/ml, 0.5 mM MnCl2
Experimental: as §1
(§3) K562-WT (wild-type), K562-αvβ6, K562-αvβ5, K562-αvβ3, and HL60 cells were maintained in 1:1 RPMI 1640, Hepes modification (Gibco): Dulbecco's Minimum Essential Medium (DMEM), Hepes modification (Sigma) supplemented with L-glutamine (Gibco) and 10% fetal calf serum (FCS). In addition K562-αvβ3, K562-αvβ5, and K562-αvβ6 cells were supplemented with geneticin (G418, Gibco) at 1 mg/ml. All transfected cells were generated by transfecting K562 cells with pCDNA-3 constructs containing individual integrin cDNAs, using lipofectamine plus (Gibco BRL).
as §2, with “C. Each protein was diluted in PBS at the concentrations indicated, and a total volume of 100 ul added per well. Plates were washed twice in PBS then blocked with 3% BSA/PBS for 1 hour at 37° C., and finally washed twice in PBS.” for “C.”

[4] = molecular target: T3, αvβ5 integrin (Homo sapiens, UniProt P06756+P18084); assay: Adhesion of K562-αvβ5 cells to LAP-β1 coated wells; details: coated at 10 μg/ml, 2 mM MgCl2
T3 construct: expressed in transfected cells; host or cells: K562
Experimental: as §1, §3
as §2, with “C. Each protein was diluted in PBS at the concentrations indicated, and a total volume of 100 ul added per well. Plates were washed twice in PBS then blocked with 3% BSA/PBS for 1 hour at 37° C., and finally washed twice in PBS.” for “C.”

[5] = tested on: K562-WT cells; assay: Adhesion of K562-WT cells to LAP-β1 coated wells; details: coated at 10 μg/ml, 0.5 mM MnCl2
Experimental: as §1, §3
as §2, with “C. Each protein was diluted in PBS at the concentrations indicated, and a total volume of 100 ul added per well. Plates were washed twice in PBS then blocked with 3% BSA/PBS for 1 hour at 37° C., and finally washed twice in PBS.” for “C.”

[6] = molecular target: T1, αvβ3 integrin; assay: Adhesion of K562-αvβ3 cells to LAP-β1 coated wells; details: coated at 10 μg/ml, 2 mM MgCl2
Experimental: Cells were allowed to attach to wells coated with quantities of LAP-β1 indicated. […] The buffer used was HBSS supplemented with 25 mM HEPES pH 7.5, and 2 mM MgCl2. Each data point represents the mean±SD of duplicated samples.
The buffer used was HBSS supplemented with 25 mM HEPES pH 7.5, and 2 mM MgCl2. Adhesion to each ligand in the absence of compound was taken as a 100% binding value, with adhesion to BSA alone as a 0% binding value. The 100% binding values corresponded to the following absorbances at 570 nm: Fibrinogen=0.8, Vitronectin=0.9, LAP-β1=0.9. Each data point represents the mean±SD of duplicated samples. […]

T1 sequence (P06756 31-889 limits assumed): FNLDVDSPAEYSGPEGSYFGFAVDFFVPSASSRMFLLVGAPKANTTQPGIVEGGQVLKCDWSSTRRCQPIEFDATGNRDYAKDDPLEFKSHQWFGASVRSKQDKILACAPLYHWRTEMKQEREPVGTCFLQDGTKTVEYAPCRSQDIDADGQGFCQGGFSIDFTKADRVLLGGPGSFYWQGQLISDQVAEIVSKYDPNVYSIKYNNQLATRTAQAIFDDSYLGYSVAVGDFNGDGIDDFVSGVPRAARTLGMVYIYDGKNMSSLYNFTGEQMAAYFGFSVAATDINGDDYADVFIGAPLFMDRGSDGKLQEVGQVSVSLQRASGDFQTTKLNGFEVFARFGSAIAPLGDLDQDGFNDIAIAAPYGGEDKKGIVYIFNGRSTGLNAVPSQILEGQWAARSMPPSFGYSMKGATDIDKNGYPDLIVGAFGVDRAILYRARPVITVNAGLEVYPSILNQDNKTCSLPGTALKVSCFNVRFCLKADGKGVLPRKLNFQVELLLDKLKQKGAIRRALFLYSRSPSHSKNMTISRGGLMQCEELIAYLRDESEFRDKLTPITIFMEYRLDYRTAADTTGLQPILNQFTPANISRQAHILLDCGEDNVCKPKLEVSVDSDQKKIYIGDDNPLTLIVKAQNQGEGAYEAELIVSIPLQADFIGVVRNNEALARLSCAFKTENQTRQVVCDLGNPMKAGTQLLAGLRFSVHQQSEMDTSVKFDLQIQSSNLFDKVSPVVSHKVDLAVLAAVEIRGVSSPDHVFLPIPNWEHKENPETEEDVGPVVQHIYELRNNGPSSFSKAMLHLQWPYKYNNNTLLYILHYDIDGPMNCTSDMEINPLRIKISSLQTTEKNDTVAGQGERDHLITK
T1 sequence (P06756 891-1048 partner limits assumed): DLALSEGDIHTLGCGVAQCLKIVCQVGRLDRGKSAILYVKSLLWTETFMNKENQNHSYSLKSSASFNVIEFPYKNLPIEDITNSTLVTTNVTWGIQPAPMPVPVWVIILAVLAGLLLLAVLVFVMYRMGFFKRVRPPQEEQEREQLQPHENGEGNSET
T1 sequence (P05106 27-788): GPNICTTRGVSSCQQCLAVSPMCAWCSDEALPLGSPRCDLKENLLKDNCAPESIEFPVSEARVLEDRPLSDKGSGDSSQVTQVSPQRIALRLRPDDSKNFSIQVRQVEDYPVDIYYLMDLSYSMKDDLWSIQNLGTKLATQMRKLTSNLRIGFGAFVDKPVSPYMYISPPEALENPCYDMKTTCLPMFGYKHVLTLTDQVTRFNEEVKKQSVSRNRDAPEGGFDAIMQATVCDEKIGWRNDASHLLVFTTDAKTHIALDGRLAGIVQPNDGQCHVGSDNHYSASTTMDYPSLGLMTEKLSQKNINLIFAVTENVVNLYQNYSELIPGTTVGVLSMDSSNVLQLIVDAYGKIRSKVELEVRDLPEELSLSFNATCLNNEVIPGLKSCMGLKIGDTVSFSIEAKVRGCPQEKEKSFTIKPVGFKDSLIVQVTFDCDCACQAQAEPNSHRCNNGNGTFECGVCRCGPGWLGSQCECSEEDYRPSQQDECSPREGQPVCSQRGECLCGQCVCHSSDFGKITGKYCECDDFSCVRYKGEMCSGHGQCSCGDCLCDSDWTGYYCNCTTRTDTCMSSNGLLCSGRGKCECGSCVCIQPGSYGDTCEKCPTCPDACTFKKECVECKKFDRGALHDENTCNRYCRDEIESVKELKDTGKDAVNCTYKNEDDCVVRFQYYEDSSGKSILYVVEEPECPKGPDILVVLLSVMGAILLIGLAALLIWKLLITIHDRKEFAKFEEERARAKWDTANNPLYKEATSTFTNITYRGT
T2 sequence (P06756 31-889 limits assumed): as the sequence (P06756 31-889 limits assumed) above
T2 sequence (P06756 891-1048 partner limits assumed): as the sequence (P06756 891-1048 partner limits assumed) above
T2 sequence (P18564 22-788): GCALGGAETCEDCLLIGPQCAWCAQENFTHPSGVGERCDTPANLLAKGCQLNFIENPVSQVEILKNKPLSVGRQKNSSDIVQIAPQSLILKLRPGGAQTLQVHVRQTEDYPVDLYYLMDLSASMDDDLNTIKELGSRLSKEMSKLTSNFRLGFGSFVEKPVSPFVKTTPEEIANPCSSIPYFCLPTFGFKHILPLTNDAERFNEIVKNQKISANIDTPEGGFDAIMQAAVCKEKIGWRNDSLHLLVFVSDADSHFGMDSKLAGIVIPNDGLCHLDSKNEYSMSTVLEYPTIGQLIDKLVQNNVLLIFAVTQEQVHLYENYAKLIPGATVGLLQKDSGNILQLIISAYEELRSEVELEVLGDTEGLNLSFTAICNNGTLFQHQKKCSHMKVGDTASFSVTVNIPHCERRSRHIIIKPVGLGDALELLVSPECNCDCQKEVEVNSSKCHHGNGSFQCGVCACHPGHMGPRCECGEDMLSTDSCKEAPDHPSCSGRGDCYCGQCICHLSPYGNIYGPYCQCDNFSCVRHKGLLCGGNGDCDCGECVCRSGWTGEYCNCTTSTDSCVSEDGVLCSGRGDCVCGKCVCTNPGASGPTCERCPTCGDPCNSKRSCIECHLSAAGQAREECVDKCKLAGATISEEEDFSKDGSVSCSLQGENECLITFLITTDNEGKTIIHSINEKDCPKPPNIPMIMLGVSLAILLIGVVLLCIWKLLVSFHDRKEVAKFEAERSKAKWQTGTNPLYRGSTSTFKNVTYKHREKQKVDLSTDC
T3 sequence (P06756 31-889 limits assumed): as the sequence (P06756 31-889 limits assumed) above
T3 sequence (P06756 891-1048 partner limits assumed): as the sequence (P06756 891-1048 partner limits assumed) above
T3 sequence (P18084 24-799): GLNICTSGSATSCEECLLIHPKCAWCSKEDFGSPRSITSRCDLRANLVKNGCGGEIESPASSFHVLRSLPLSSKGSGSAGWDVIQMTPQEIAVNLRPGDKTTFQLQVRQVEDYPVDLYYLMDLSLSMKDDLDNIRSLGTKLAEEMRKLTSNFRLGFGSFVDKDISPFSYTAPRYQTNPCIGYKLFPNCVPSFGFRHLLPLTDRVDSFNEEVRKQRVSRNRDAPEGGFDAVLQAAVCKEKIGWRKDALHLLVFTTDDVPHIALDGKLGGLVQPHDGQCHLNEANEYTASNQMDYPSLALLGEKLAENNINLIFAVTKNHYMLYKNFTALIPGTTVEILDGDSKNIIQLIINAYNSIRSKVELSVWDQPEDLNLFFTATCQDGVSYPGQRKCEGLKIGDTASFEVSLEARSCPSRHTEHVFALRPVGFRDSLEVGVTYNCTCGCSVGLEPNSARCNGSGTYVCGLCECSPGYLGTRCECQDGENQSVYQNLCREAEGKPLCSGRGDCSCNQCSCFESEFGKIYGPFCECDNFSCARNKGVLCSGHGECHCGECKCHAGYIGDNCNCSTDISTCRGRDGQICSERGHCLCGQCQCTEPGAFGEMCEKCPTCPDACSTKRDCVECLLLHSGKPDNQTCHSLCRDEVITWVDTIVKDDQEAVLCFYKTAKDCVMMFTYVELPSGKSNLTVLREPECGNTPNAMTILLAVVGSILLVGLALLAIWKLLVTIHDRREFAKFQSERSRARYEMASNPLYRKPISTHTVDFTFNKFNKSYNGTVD

Adhesion of K562-αvβ6 cells to the coated protein [2]	Adhesion of K562-αvβ5 cells to the coated protein [4]	Adhesion of K562-αvβ3 cells to the coated protein [6]	Substance	Ability to support adhesion of K562-αvβ3 cells [1]	Adhesion of HL60 cells to the coated protein [3]	Adhesion of K562-WT cells to the coated protein [5]
			GST-LAPβ1 (aa242–252): peptide fragment of LAPβ1 (amino acids 242–252, GRRGDLATIHG) containing the RGD motif, expressed as a GST fusion protein in E. coli ({GST}-GRRGDLATIHG; UniProt P01137 242-252, looked up, fragment)	supported adhesion of K562-αvβ3 cells similarly to intact LAPβ1		
adhered	bound slightly	interacted strongly	LAP-β1: latency associated peptide-β1 of TGF-β1, amino acids 30 to 278 of SEQ ID NO: 1, obtained from Sigma		failed to bind	bound slightly
